In CN118005785A (BEILAI PHARMACEUTICAL CO LTD, dated 2024):

How the values were obtained:
[1] = molecular target: T1, Human IL-17A重组蛋白 (IL-17A-His) (human, UniProt Q16552 24-155, limits assumed, biotinylated in the ELISA of paragraph 276 (Biotin-IL-17A-His); site not stated); test: cell-based or functional assay
T1 sequence: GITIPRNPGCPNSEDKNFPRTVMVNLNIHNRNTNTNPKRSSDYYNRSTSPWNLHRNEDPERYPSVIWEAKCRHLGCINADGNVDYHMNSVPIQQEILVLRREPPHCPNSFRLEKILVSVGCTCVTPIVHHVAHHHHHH

[2] = molecular target: T1, Human IL-17A重组蛋白 (IL-17A-His); test: ELISA, antibody coated at 2 ug/mL, Biotin-IL-17A-His titrated from 10 ug/mL, HRP-Streptavidin detection
[3] = molecular target: T1, Human IL-17A重组蛋白 (IL-17A-His); test: BLI, ForteBio OCTET R2, IL-17A-His immobilised on the sensor at 5 ug/mL, antibody 50-3.13 nM, 25℃

IC50, luciferase activity of 293F-IL-17RA-IL-17Rc-ACT1-NFκB-Luc reporter cells stimulated with 0.1 μg/mL IL-17A [1]: 2.23 nM
EC50 [2]: 10.1 µg/mL
Kd [3]: 0.391 nM
B1: Ixekizumab (antibody, human IgG4 S228P, kappa, V domains shown)
VH: QVQLVQSGAEVKKPGSSVKVSCKASGYSFTDYHIHWVRQAPGQGLEWMGVINPMYGTTDYNQRFKGRVTITADESTSTAYMELSSLRSEDTAVYYCARYDYFTGTGVYWGQGTLVTVSS
VL: DIVMTQTPLSLSVTPGQPASISCRSSRSLVHSRGNTYLHWYLQKPGQSPQLLIYKVSNRFIGVPDRFSGSGSGTDFTLKISRVEAEDVGVYYCSQSTHLPFTFGQGTKLEIKR
notes: Made in-house in 293F cells from the synthesised variable regions cloned into hIgG4 and hIgKc vectors; purified on Protein A; also called 阳性对照抗体Ixekizumab; 阳性抗体
